US20140079717A1, “Compositions and Methods to Prevent Cell Transformation and Cancer Metastasis” (CORNELL UNIVERSITY, priority 2011, published 2014)

Test: In vitro liposome fractionation assay
Assay type: binding
Conditions: 5 μg protein, 15 minute incubation, centrifugation, SDS-PAGE
Description: FIG. 51. Recombinant tTG can associate with lipid vesicles lacking any protein content. Synthetic liposomes were prepared by extrusion and then equal amounts of this preparation were combined with either 5 μg recombinant tTG (tTG WT) or 5 μg bovine serum albumin (BSA). After a 15 minute incubation, the liposomes were pelleted by centrifugation, and the resulting supernatant (Sup) and liposome (Pellet) fractions were resolved by SDS-PAGE. The gel was then stained with Quick Blue to detect the proteins. A lane containing recombinant tTG (Rec. tTG WT) was included as a standard.
To obtain the results depicted in FIG. 51, the following procedures were used. In vitro liposome fractionation assays—Synthetic liposomes were prepared from a lipid mixture containing 35% phosphatidylethanolamine, 25% phosphatidylserine, 5% phosphatidylinositol, and 35% cholesterol re-suspended in TBSM buffer (20 mM Tris, pH 7.5, 150 mM NaCl, and 2 mM MgCl2). The lipids were extruded through an 8 micron filter, pelleted by centrifugation at 13,000 rpm for 15 minutes, and re-suspended in TBSM buffer. Equal amounts of the lipid preparation were then incubated with either recombinant wild-type tTG or BSA for 15 minutes, followed by centrifugation at 13,000 rpm for 10 minutes at room temperature. […]

B1: tTG WT: purified recombinant wild-type tissue transglutaminase (protein, UniProt P21980 2-687, looked up)
Protein-glutamine …: AEELVLERCDLELETNGRDHHTADLCREKLVVRRGQPFWLTLHFEGRNYEASVDSLTFSVVTGPAPSQEAGTKARFPLRDAVEEGDWTATVVDQQDCTLSLQLTTPANAPIGLYRLSLEASTGYQGSSFVLGHFILLFNAWCPADAVYLDSEEERQEYVLTQQGFIYQGSAKFIKNIPWNFGQFEDGILDICLILLDVNPKFLKNAGRDCSRRSSPVYVGRVVSGMVNCNDDQGVLLGRWDNNYGDGVSPMSWIGSVDILRRWKNHGCQRVKYGQCWVFAAVACTVLRCLGIPTRVVTNYNSAHDQNSNLLIEYFRNEFGEIQGDKSEMIWNFHCWVESWMTRPDLQPGYEGWQALDPTPQEKSEGTYCCGPVPVRAIKEGDLSTKYDAPFVFAEVNADVVDWIQQDDGSVHKSINRSLIVGLKISTKSVGRDEREDITHTYKYPEGSSEEREAFTRANHLNKLAEKEETGMAMRIRVGQSMNMGSDFDVFAHITNNTAEEYVCRLLLCARTVSYNGILGPECGTKYLLNLNLEPFSEKSVPLCILYEKYRDCLTESNLIKVRALLVEPVINSYLLAERDLYLENPEIKIRILGEPKQKRKLVAEVSLQNPLPVALEGCTFTVEGAGLTEEQKTVEIPDPVEAGEEVKVRMDLLPLHMGLHKLVVNFESDKLKAVKGFRNVIIGPA
Which “protein pelleted with synthetic liposomes” value does the source give for B1 here?
Its value is “nearly all”.
